From article PMC6071512

Target: His6-RumM (ruminococcin-A lanthionine synthetase RumM) (Ruminococcus gnavus E1) (UniProt P83674)

His6-GFP-TEV-preRumA* (GFP fusion of the precursor peptide preRumA with Gly-1 replaced by Arg), co-expressed with RumM (from UniProt P83674 24-47)
fraction of His6-GFP-TEV-preRumA* complexed with His6-RumM that TEV protease digested (the free construct was completely digested), SDS-PAGE: 50%
